Measured values from patent publication US20150290345A1.
pKd: −log10 of the molar value.

Molecular target: Recombinant Human ErbB2/Fc Chimera (R&D Systems, Inc.) (human) (UniProt P04626)
Assay: SPR, ProteOn XPR36; ErbB2/Fc amine-coupled on GLM chip (about 3000 RU), 1:1 Langmuir fit

pKd | Substance
9.62 | L2-ICG-HSA (Affibody-immobilized ICG-HSA, SM(PEG)2 linker at 100 times the molar amount of ICG-HSA) (from UniProt P02768 25-609)
8.64 | L1-ICG-HSA (Affibody-immobilized ICG-HSA, SM(PEG)2 linker at 10 times the molar amount of ICG-HSA) (from UniProt P02768 25-609)
